From article PMC10187921, “A fully human neutralizing monoclonal antibody targeting a highly conserved epitope of the human cytomegalovirus glycoprotein B” (PLOS ONE, 2023)

What was measured:
[1] = target: glycoprotein B of 42 Japanese clinical isolates (39 tested in MRC-5, 24 in ARPE-19 cells) (human cytomegalovirus)
[2] = target: glycoprotein B of eight Japanese clinical isolates (2009-889, I88-55, I144-44, H12-42, H12-43, H1-10, H1-15, MDU-1) (human cytomegalovirus)
[3] = target: T1, Human cytomegalovirus glycoprotein B (strain AD169) on infectious virions (Human cytomegalovirus, strain AD169, UniProt P06473); assay: cell-based or functional assay
T1 sequence (P06473 32-906): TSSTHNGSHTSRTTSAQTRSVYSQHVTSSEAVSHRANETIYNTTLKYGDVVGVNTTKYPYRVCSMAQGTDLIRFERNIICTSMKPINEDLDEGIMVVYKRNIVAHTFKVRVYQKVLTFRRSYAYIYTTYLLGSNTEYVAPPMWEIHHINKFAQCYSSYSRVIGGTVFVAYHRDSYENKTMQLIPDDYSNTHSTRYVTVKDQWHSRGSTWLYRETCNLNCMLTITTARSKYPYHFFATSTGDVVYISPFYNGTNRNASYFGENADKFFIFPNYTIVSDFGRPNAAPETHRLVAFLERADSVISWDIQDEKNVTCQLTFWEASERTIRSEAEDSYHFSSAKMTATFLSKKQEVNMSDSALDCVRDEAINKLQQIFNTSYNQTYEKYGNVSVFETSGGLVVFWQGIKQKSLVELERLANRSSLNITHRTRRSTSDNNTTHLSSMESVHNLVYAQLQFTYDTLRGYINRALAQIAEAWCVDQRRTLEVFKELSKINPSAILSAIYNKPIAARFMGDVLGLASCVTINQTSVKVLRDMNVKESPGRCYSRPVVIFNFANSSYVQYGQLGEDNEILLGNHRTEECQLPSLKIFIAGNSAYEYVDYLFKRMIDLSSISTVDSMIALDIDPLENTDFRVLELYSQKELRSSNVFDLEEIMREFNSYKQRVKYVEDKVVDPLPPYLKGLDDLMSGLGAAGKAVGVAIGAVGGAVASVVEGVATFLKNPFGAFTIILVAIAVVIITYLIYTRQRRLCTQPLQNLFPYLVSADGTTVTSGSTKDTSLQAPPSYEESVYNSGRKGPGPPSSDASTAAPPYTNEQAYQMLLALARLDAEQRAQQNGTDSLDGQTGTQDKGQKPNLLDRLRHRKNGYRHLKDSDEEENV

[4] = target: T2, Recombinant AD-1 protein from HCMV gB (strain AD169, amino acids 541-658), fused with glutathione … (Human cytomegalovirus, strain AD169, UniProt P06473); assay: SPR; Biacore T200; EV2038 (0.33 μg/mL) captured by anti-IgG (Fc) antibody on a CM5 chip; recombinant AD-1 injected as analyte; 1:1 binding model; settings: both partners purified
T2 construct: antigenic domain 1 (AD-1) of human cytomegalovirus glycoprotein B, strain AD169, amino acids 541-658, UniProtKB P06473; The printed size of 40.7 kDa fits the fusion with GST still on it; no cleavage is told; Vector pGEX4T; also called recombinant antigenic domain 1; source: E. coli BL21 (DE3), solubilized with 0.5% sarkosyl, purified (SDS-PAGE, electroelution, dialysis against PBS)
T2 sequence (P06473 541-658): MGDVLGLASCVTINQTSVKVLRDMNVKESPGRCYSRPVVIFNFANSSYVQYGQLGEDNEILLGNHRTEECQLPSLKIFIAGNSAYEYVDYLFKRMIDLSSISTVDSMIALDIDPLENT

[5] = target: T1, Human cytomegalovirus glycoprotein B …; assay: SPR; Biacore T200; infectious virions (strain AD169, 1.6 × 10^8 plaque-forming units/mL) trapped by captured MSL-109 (anti-gH/gL); EV2038 injected as analyte; 1:1 binding model; settings: one partner purified

B1: EV2038 (IgG1 lambda), fully human neutralizing monoclonal antibody (antibody, V domains shown)
VH: QVQLQQWGAGLLKPSETLSLTCAVYGGSFSGYYWGWIRQPPGKGLEWIGEINHSGSANSNPSLKSRVTMSVDTSKNQFSLKVSSVTAADTAVYFCARVTRDLEWIPGDYYMDVWGKGTTVTVSS
VL: QSVLTQPPSASGTPGQRVSISCSGSLSNIGTNYVYWYQQLPGTAPKLLIFKNNQRPSGVPDRFSGSKSGTSASLAISGLRSEDEADYYCAAWDDSLNGYVFGTGTKVTVL
notes: heavy chain framework 1: only the Kabat CDRs are printed; heavy chain CDR1 (Kabat); heavy chain CDR2 (Kabat); heavy chain CDR3 (Kabat); constant region of human IgG1 heavy chain; light chain framework 1: only the Kabat CDRs are printed; light chain CDR1 (Kabat); light chain CDR2 (Kabat); light chain CDR3 (Kabat); constant region of a human lambda light chain; IgG1 lambda; the frameworks are not; …
[1]
  IC50 of neutralisation of HCMV infection, plaque reduction assay, 24 clinical isolates in ARPE-19 cells: 0.013 to 0.105 µg/mL
  IC50 of neutralisation of HCMV infection, plaque reduction assay, 39 clinical isolates in MRC-5 cells: 0.013 to 0.103 µg/mL
  IC90 of neutralisation of HCMV infection, plaque reduction assay, 24 clinical isolates in ARPE-19 cells: 0.208 to 1.03 µg/mL
  IC90 of neutralisation of HCMV infection, plaque reduction assay, 39 clinical isolates in MRC-5 cells: 0.215 to 0.901 µg/mL
[2]
  IC50 of inhibition of viral cell-to-cell spread, focus expansion assay, eight clinical isolates in ARPE-19 cells: 1 to 3.1 µg/mL
  IC90 of inhibition of viral cell-to-cell spread, focus expansion assay, eight clinical isolates in ARPE-19 cells: 13 to 19 µg/mL
[3]
  IC50 of neutralisation of HCMV infection (strain AD169) after two passages of virus grown with mAbs, preliminary study: 0.08 to 0.18 µg/mL
  IC50 of neutralisation of HCMV infection (strain AD169) in MRC-5 cells, without anti-CMV agents: ~0.1 µg/mL
[4]
  Kd: 5.73 nM
  koff: 0.000279 s⁻¹
[5]
  Kd: 0.224 nM
  koff: 0.00113 s⁻¹
